Biological target: murine DLL3.HIS (IPA custom, amino acid 25-477) (mouse) (UniProt O88516)
Assay: BLI (Octet), captured on AHC sensor, antigen in solution

murine DLL3.HIS (IPA custom, amino acid 25-477) (mouse), sequence (O88516 25-477 limits assumed, form in doubt): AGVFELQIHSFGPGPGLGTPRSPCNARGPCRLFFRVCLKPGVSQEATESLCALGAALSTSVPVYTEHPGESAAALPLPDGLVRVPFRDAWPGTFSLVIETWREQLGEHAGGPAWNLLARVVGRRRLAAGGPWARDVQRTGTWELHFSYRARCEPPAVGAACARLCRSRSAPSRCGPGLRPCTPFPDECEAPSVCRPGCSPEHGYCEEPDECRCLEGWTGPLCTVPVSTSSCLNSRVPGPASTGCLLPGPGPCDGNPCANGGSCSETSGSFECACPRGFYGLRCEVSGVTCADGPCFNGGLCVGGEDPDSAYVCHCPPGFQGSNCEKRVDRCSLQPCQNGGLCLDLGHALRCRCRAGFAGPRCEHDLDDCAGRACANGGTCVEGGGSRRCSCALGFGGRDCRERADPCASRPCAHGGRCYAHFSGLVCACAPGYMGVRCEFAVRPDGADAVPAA

koff: 0.000267 s⁻¹
kon: 215000 M⁻¹ s⁻¹
B1: DLL3 VHH (Fc fusion, not shown: small tags and cut ends; a dimerising Fc or GST)
chain: EVQLVESGGGEVQPGGSLRLSCAASGSIFSINAMGWYRQAPGKQRELVAGFTGDTNTIYAESVKGRFTISRDNAKNTVYLQMSSLRAEDTAVYYCAADVQLFSRDYEFYWGQGTLVTVKP

Source: US20260055180A1
